Experimental data as given in the supplement of paper PMC9170038.

System: MS2 coat protein
Assay: apparent KD of MS2 coat protein; higher = weaker reporter binding
Conditions: Eterna round: R107
Procedure, shortened: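 Designed RNA switches were transcribed on-chip from Illumina sequencing clusters and titrated with SNAP-549-labelled MS2 coat protein in twofold steps from 0.7 or 1.5 nM up to 3 µM. Each step lasted 0.8–1.5 h at first and 10–20 min by the end, in 100 mM Tris-HCl pH 7.5, 80 mM KCl and 4 mM MgCl2, without or with constant ligand. Apparent KD is the median, for each design, of fits to normalised cluster binding curves.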

[1] = input ligand: theophylline 20 uM
[2] = input ligand: theophylline 2 mM
[3] = input ligand: tryptophan 2.4 mM

Row | Sequence | apparent KD of MS2 coat protein (input ligand: arginine 13.2 mM) | apparent KD of MS2 coat protein [1] | apparent KD of MS2 coat protein [2] | apparent KD of MS2 coat protein (input ligand: none) | apparent KD of MS2 coat protein [3]
1 | GUCCAAAGGUCGGCCGCCACUGUAGGAUGUGUUCUUUCACAUGAGGAUCACCCAUGUUGUUAUUAUAGGACCGGGAUUGUAGGAC [39MS split4] | 16.4 nM | 32.2 nM | 21.5 nM | – | –
2 | GUCGGAGUCUGAAGGAGCGACAUGAGGAUCACCCAUGUCUCCCGUUAUGGGAGUUCCUUAGGUCAGGUAGGUCGCAGACUCCGAC [#1 Exclusion - Arginine B Attempt #25 (Inspired by Omei)] | 78.1 nM | 145 nM | 144 nM | 141 nM | 140 nM
3 | GUCGGUACGUCGGCAAAGCCGAUGUGCCAGCGAGGACCGGUACGGCCGCCACUCGUACAUGAGGAUCACCCAUGUCCGGUCCGAC [Omei Trp SS A C v4] | 44.7 nM | 139 nM | 169 nM | 134 nM | 155 nM
4 | GUCUUGGGAUCGGCCGCCACUACAUGAGGAUCACCCAUGUGGACAAAUAGGGUUUUUAAGCUCGGUAGGACCGGGAUUCGGACAU [Marasosoge] | 12.9 nM | 16.7 nM | 16.3 nM | – | –
5 | GUGACUUACGGGCGCCAUUUGUGAUAGGAAGGAGCGGCGAAAUAGCCAGGUAGGUCGCCUAUACAUGAGGAUCACCCAUGUCACC [Veveatonus] | 45.1 nM | 64.9 nM | 84.6 nM | 105 nM | 72.6 nM
6 | GUGCCGCAUUCACAUGAGGAUCACCCAUGUCGAGGACCGGUACGGCCGCCACUCGACGUGCUUACAGGUCCUUUAAGGCCCAAUA [Usislaan] | 79 nM | 200 nM | 221 nM | – | –
7 | GUGCCGCAUUCACAUGAGGAUCACCCAUGUCGAGGACCGGUACGGCCGCCACUCGACGUGCUUACAGGUCCUUUACGGCCCAAUA [Biedxele] | 30.7 nM | 71.3 nM | 36.9 nM | – | –
8 | GUGGGUUUGCGAAGGAGCGGGUAUGUUUUCUACUGGAUCCUAACAUGAGGAUCACCCAUGUCCCAGGUAGGUCGCGCGGGCUUGG [12.Z] | 49.7 nM | 81.9 nM | 209 nM | 215 nM | 56.8 nM
9 | GUUGUAUACUCGGCCGCCACUGAGAGAGUCAUGUAAACAUGAGGAUCACCCAUGUAAUAUAUAUACAGGACCGGGAGUGUGGUAA [4.G] | 9.31 nM | 16 nM | 12 nM | 12.8 nM | 11.8 nM
10 | UAAGCGCGAGGAGACGGAACCAAUCUUGUUCGAGGACCGGUACGGCCGCCACUCGGCGUAAAACAUGAGGAUCACCCAUGUGCAA [theeternabot_exclusion_MS2_Trp_A_18] | 10.8 nM | 15.6 nM | 16.1 nM | 13.2 nM | 16.4 nM
11 | UAAUAAGUACCGGUUCUCAGAUCCUCAUGUCGAGGACCGGUACGGCCGCCACUCGAAACAUGAGGAUCACCCAUGUAAUAAUAAU [#07 Exclusion Tryptophan A] | 23.5 nM | 67.1 nM | 54.5 nM | – | –
12 | UACAGCAGUACGGCCGCCACUCUAAGAUUGCGCGUUUAGGCCAUACAUGAGGAUCACCCAUGUCCGAGGACCGGGUACAGGAAUU [theeternabot_sameState_MS2_Trp_B_29] | 88.3 nM | 416 nM | 502 nM | 185 nM | 89.2 nM
13 | UACAUGAGGAUCACCCAUGUAAGGUGAGAUACCAGUGAUAUGCUACACCCUUGGCAGCUCACGGCUGACUAUCAGCACACAUGUA [Theo A SS t1] | 28.2 nM | 34.4 nM | – | – | 26.8 nM
14 | UACAUGAGGAUCACCCAUGUAUGAAUAGAUACCAGCGAAAAUAAGCGCCCUUGGCAGCUAGUGAAUAAAGGGUGGGUAAAAUAAU [Exclusion Theophyline A GF 2] | 8.3 nM | 13.6 nM | – | – | 9.41 nM
15 | UACAUGAGGAUCACCCAUGUAUGAAUGGAUACCAGAUAAAAUAAGGUCCCUUGGCAGCUAGUGAAUCGAGGGUGGGUAUCAUGUU [#14 Exclusion-TheophyllineA] | 10.9 nM | 13.7 nM | – | – | 9.89 nM
16 | UACUGUCUAACGGCCGCCACUCAGUCUCGGUUGAUUAUCUUAAGUGACAUGAGGAUCACCCAUGUGAGGACCGGGUUGUGCAUAA [theeternabot_exclusion_MS2_Trp_B_40] | 60.4 nM | 91.3 nM | 96.7 nM | – | –
17 | UAUAUAUAUCACUAACUGUUCUUGAGGUCUCGAGGACCGGUACGGCCGCCACUCGUACCGCCUCACAUGAGGAUCACCCAUGUCC [XTryp A #1] | 52.2 nM | 85.5 nM | 97.6 nM | – | –
18 | UAUCCACAUGAGGAUCACCCAUGUAGGGAAGGAGCGGUGGAUGCACCAGGUAGGUCGCCUUGCUGAGGACAGCCGGUGGAUUCGU [Exclusion - Arginine A (Freestyle 27)] | 29 nM | 59.6 nM | 46.7 nM | 31.9 nM | 32.8 nM

Row | Sequence | apparent KD of MS2 coat protein (input ligand: arginine 13.2 mM) | apparent KD of MS2 coat protein [1] | apparent KD of MS2 coat protein [2] | apparent KD of MS2 coat protein (input ligand: none) | apparent KD of MS2 coat protein [3]
19 | UAUCCACAUGAGGAUCACCCAUGUUAGGAAGGAGCGGUGAAUGAACCAGGUAGGUCGCCUAGCUGAGGACUGUCGAUGGAUUCGU [Exclusion - Arginine A (Freestyle 17)] | 13.4 nM | 28.2 nM | 24.5 nM | 18.1 nM | 20.5 nM
20 | UAUCCACAUGAGGAUCACCCAUGUUAGGAAGGAGCGGUGAAUGAACCAGGUAGGUCGCCUAGGUGAGGAUCAUCUAUGGAUUCGU [Exclusion - Arginine A (Freestyle 11)] | 30 nM | 37.3 nM | 38.3 nM | 30.2 nM | 31.7 nM
21 | UAUCGUCAGACGGCCGCCACUAGAACAUGAGGAUCACCCAUGUACGGCCGCUCGGUCCUCAUGACUAGGACCGGGUCUGACGAAU [(Trp1)-(Ms2)-(T)'-(M)'-(Trp2)_Design22] | 10.8 nM | 16.9 nM | 12 nM | 7.31 nM | 9.96 nM
22 | UAUCGUCAGACGGCCGCCACUAGAACAUGAGGAUCACCCAUGUAGGCGGCCGAUUCCUCAUUAACUAGGACCGGGUCUGACGAAU [(Trp1)-(Ms2)-(T)'-(M)'-(Trp2)_Design11] | 11.5 nM | 15.9 nM | 9.76 nM | – | –
23 | UAUUAUCAGUCGGCCGCCACUGACACAUGAGGAUCACCCAUGUAAUUUGGGUUAUAUAGAAAAUACAGGACCGGGACUAAGGCUA [JR_ExcTryptoB_Sub014] | 87.5 nM | 324 nM | 326 nM | – | –
24 | UAUUAUCAGUCGGCCGCCACUGACACAUGAGGAUCACCCAUGUAAUUUGGGUUAUAUAUAAAUUACAGGACCGGGACAAAGGCUA [JR_ExcTryptoB_Sub013] | 114 nM | 318 nM | 396 nM | – | –
25 | UAUUAUCAGUCGGCCGCCACUGACACAUGAGGAUCACCCAUGUAAUUUGGGUUAUAUAUAAAUUACAGGACCGGGACAAAUGCUA [JR_Nu13_ExcTryptoB_Sub025] | 161 nM | 366 nM | 368 nM | – | –
26 | UAUUAUCAGUCGGCCGCCACUGUCACAUGAGGAUCACCCAUGUAACUUGGGUUAUAUUUAAUAUACAGGACCGGGACAAAGGCUA [JR_ExcTryptoB_Sub012] | 61.5 nM | 76.6 nM | 66.8 nM | – | –
27 | UCAAUAAUUAGAUUGUUACAUGUAUCAGAAGGAGCGUGAGUAAUCACAGGUAGGUCGCUGUUAACAUGAGGAUCACCCAUGUUUU [JR_ExcArginiA_Sub009] | 31.2 nM | 43.6 nM | 39.2 nM | 40.9 nM | 36.8 nM
28 | UCACAUGAGGAUCACCCAUGUACAGGCGAUACCAGCCGUACAUUGGGCCCUUGGCAGCGCAUCGAGACCUUUAUAAGCACCUCGG [Ceusbi] | 24.5 nM | 127 nM | – | – | 81.6 nM
29 | UCACAUGAGGAUCACCCAUGUCAUGUUGAAGGAGCGACCAGGAGGUCAGGUAGGUCGCAACACAUGAGGAUCACCCAUGUGGCCC [Qetesh] | 87.5 nM | 119 nM | 159 nM | 172 nM | 149 nM
30 | UCACGAGGCCUGGAUACCAGCGACAUGAGGAUCACCCAUGUAUGAGGAUCAGCCAUGUUAUGCCCUUGGCAGCCACGAAGGUCAU [XZZMULLIN] | 14.5 nM | 26.5 nM | – | – | 15.8 nM
31 | UCAUUUUUCACGGCCGCCACUUCAAGGUCCUGAGGCUGGGCAACACAUGAGGAUCACCCAUGUCGAAGGACCGGGUGAAGCUACC [theeternabot_sameState_MS2_Trp_B_34] | 152 nM | 248 nM | 527 nM | – | –
32 | UCCAUCGGCGGAAGCCGAUGGUUUACAGAAGGAGCGUAGGAAACUACAGGUAGGUCGCUGGACAUGAGGAUCACCCAUGUGUUUU [SSAA #12] | 24.4 nM | 22.4 nM | 30 nM | 26.5 nM | 20.8 nM
33 | UCGCCCGGGUCGGCCGCCACUGAGGUGAUAUGACAUGAGGAUCACCCAUGUUGUCAUGUGGAACAUAGGACCGGGACCCGGGCGA [Exclusion - Tryptophan B Attempt #2 (HarryS)] | 15.7 nM | 47.6 nM | 19.6 nM | 18.5 nM | 17.8 nM
34 | UCGCUCUGGGUGAAUUCCGGAGAUGUGGAAGGAGCGGACGAAAGUCCAGGUAGGUCGCCAUCGAACAUGAGGAUCACCCAUGUAC [Same State - Arginine A (Freestyle 24)] | 55.8 nM | 105 nM | 165 nM | 93.2 nM | 93.7 nM
35 | UCGUGAGUUUCGGAUACCAGUGUGGUCGAUACAUGAGGAUCACCCAUGUUAGAGGAGGUACACCCUUGGCAGCCGGCUGUGGCGG [hlhmullin] | 31.4 nM | 35.4 nM | 18.1 nM | 23.5 nM | 25 nM
